Laboratory results from US20250152742A1, “COMPOSITIONS AND METHODS FOR NEUROLOGICAL DISEASES” (Trames Bio, Inc., priority 2022, published 2025).
Where two headings read alike, the source gives them in different places.

B1: CODA806: engineered receptor: Y115D, L131Q in SEQ ID NO: 33 (Chemogenic receptor-11) (protein)
chain: MRCSPGGVWLALAASLLHVSLQGEFQRKLYKELVKNYNPLERPVANDSQPLTVYFSLSLLQIMDVDEKNQVLTTNIWLQMSWTDHYLQWNVSEYPGVKTVRFPDGQIWKPDILLDNSADERFDATFHTNVQVNSSGHCQYLPPGIFKSSCPMDLKNFPMDVQTCKLKFGSWSYGGWSLDLQMQEADISGYIPNGEWDLVGIPGKRSERFYECCKEPYPDVTFTVTMRRRMGYYLIQMYIPSLLIVILSWISFWINMDAAPARVGLGITTVLTMTTQSSGSRASLPKVSYVKAIDIWMAVCLLFVFSALLEYAAVNFVSRQHKELLRFRRKRRHHKSPMLNLFQEDEAGEGRFNFSAYGMGPACLQAKDGISVKGANNSNTTNPPPAPSKSPEEMRKLFIQRAKKIDKISRIGFPMAFLIFNMFYWIIYKIVRREDVHNQ
modifications: synthetic sequence of chimeric LGIC
B2: COAD1056 (protein)
chain: MRCSPGGVWLALAASLLHVSLQGEFQRKLYKELVKNYNPLERPVANDSQPLTVYFSLSLLQIMDVDEKNQVLTTNIWLQMSWTDHYLQWNVSEYPGVKTVFFPDGQIWKPDILLENSADERFDATFHTNVLVNSSGHCQYLPPGIFKSSCPMDLKNFPMDVQTCKLKFGSWSYGGWSLDLQMQEADISGYIPNGEWDLVGIPGKRSERFWECCKEPYPDVTFTVTMRRRMGYYLIQMYIPSLLIVILSWISFWINMDAAPARVGLGITTVLTMTTQSSGSRASLPKVSYVKAIDIWMAVCLLFVFSALLEYAAVNFVSRQHKELLRFRRKRRHHKSPMLNLFQEDEAGEGRFNFSAYGMGPACLQAKDGISVKGANNSNTTNPPPAPSKSPEEMRKLFIQRAKKIDKISRIGFPMAFLIFNMFYWIIYKIVRREDVHNQ
modifications: synthetic sequence of chimeric LGIC
B3: COAD1055 (protein)
chain: MRCSPGGVWLALAASLLHVSLQGEFQRKLYKELVKNYNPLERPVANDSQPLTVYFSLSLLQIMDVDEKNQVLTTNIWLQMSWTDHYLQWNVSEYPGVKTVWFPDGQIWKPDILLENSADERFDATFHTNVLVNSSGHCQYLPPGIFKSSCPMDLKNFPMDVQTCKLKFGSWSYGGWSLDLQMQEADISGYIPNGEWDLVGIPGKRSERFWECCKEPYPDVTFTVTMRRRMGYYLIQMYIPSLLIVILSWISFWINMDAAPARVGLGITTVLTMTTQSSGSRASLPKVSYVKAIDIWMAVCLLFVFSALLEYAAVNFVSRQHKELLRFRRKRRHHKSPMLNLFQEDEAGEGRFNFSAYGMGPACLQAKDGISVKGANNSNTTNPPPAPSKSPEEMRKLFIQRAKKIDKISRIGFPMAFLIFNMFYWIIYKIVRREDVHNQ
modifications: synthetic sequence of chimeric LGIC

Assays:
[1] = system: engineered receptors and wild type nAchRa7 expressed in HEK293T cells; experiment: High throughput electrophysiology (IonFlux HT/Mercury automated patch clamp), EC50; assay type: cell-based, human; settings: for EC50: ligand TC-5619
Protocol: To confirm the […] determined by plate reader as well as develop a better understanding of maximum current flow, the engineered receptors were subjected to high throughput electrophysiology system, as described below. For HEK293T studies, cDNAs encoding ion channels were cloned into pcDNA3.1 using standard recombination techniques. HEK293T cells from Clontech (Lenti-XTM 293T Cell Line) were cultured in DMEM supplemented with 10% FBS and 1% Pen/Strep to 40-50% confluence using standard cell culture protocols, transfected with ion channel plasmids at a concentration of 18 μg per 15 cm dish using Fugene 6, and grown for an additional 24 hours. Cells were then assayed on an electrophysiological system (IonFluxHT and/or Mercury, Fluxion Biosciences) in which dose-response relationships may be assessed through a microfluidics-based platform for establishing whole cell configurations. Ensemble plates were primed with extracellular buffer (140 mM NaCl, 5 mM KCl, 2 mM CaCl2), 1 mM MgCl2, 10 mM HEPES, and 10 mM glucose, pH 7.2 with NaOH, mOsm 310), intracellular buffer (145 mM CsCl, 2 mM CaCl2, 2 mM MgCl2, 10 mM HEPES, and 10 mM EGTA, pH 7.2 with CsOH, mOsm 305), as adapted from Lynagh and Lynch, and test compounds (stocks prepared fresh) diluted in extracellular buffer. Cells were then released from the plate with Accutase, centrifuged, resuspended in extracellular buffer, and loaded into Ensemble plates. Cells were then subjected to a standard protocol for priming, trapping, breaking, and establishing whole cell configuration, with cells held at −60 mV throughout the recording. After recording baseline, progressive doses of test compounds were applied using the IonFlux software to assess dose response relationships. Data were then analyzed off-line using custom Python scripts to convert data to .csv format, re-plot traces, and apply QC measurements to reject unstable recordings (i.e. thresholding based on access resistance and/or standard deviation in baseline, as well as artifact rejection). Peak currents were then calculated, and population data were fit using a 4-parameter logistic equation as described by the Hill Equation. Currents were measured on an automated patch clamp system (Fluxion Biosciences) following 1 second addition of drug and the EC50 values calculated are tabulated below in Table 22A and Table 22B below and Table 21A and Table 21B above (in Example 2).

rat DRG neurons = experiment: Rheobase shift / evoked action potentials, rat DRG neurons (current clamp); assay type: cell-based; settings: for Rheobase Shift; Rat DRG Neurons, Baseline: no ligand, neurons expressing the receptor; for Rheobase Shift; Rat DRG Neurons, +TC-5619 @ EC90: ligand TC-5619 at EC90
Protocol: Using whole cell manual patch clamp electrophysiology in HEK293 cells, rat DRG neurons and rat hippocampal neurons, the EC50 of the various engineered receptors disclosed herein to Ach and non-native ligands was measured using the Hill equation with peak current measurements from escalating doses of ligand. The rheobase shift was also measured in rat DRG neurons, which reflects the efficacy of the receptors. To calculate the rheobase, first, the amount of current that can produce an action potential was determined. Then the ligand was added, followed by a step wise increase in the current injected up to 700 pA.
DRG rheobase experiments were performed in current clamp mode using a potassium-based internal solution containing: 100 mM potassium D-gluconate, 28 mM potassium chloride, 1 mM magnesium chloride hexahydrate, 5 mM magnesium ATP, 10 mM HEPES, and 0.5 mM EGTA (pH=7.2 with potassium hydroxide, osmolarity=290-295 mOsm, calculated liquid junction potential=−13.5 mV). To measure DRG input resistance and rheobase, 500 ms current steps (−200 pA to 700 pA) were applied the membrane in the presence and absence of a compound. No holding current was applied to the membrane for cells included in the final datasets. Data were acquired at 10 kHz, with Bessel filter at 2 kHz and series resistance compensation at 100%. Rheobase was defined as the smallest depolarizing current injection required to cause an action potential to fire in the cell. In a subset of cells, the rheobase was ambiguous, since the action potential appeared to be graded in amplitude. In these cases, a […] of the trace clarified the rheobase. Input resistance was measured from the negative current injections, calculated as the difference in membrane potential at steady state divided by the current injection amplitude and then averaged across the four negative current steps for each recording. Resting membrane potential was measured from the first 100 ms of each sweep, averaged for each recording, and corrected for liquid junction potential. One-way ANOVA with multiple comparisons was used to test for significance of difference in rheobase and input resistance between baseline, drug, and wash conditions.
DRG neurons: DRG rheobase experiments were performed in current clamp mode using a potassium-based internal solution containing (in mM): 100 potassium D-gluconate (G4500), 28 potassium chloride (P9333), 1 magnesium chloride hexahydrate (M2670), 5 magnesium ATP (A9187), 10 HEPES (54457), and 0.5 EGTA (3777) (pH=7.2 with potassium hydroxide, osmolarity=290-295 mOsm, calculated liquid junction potential=−13.5 mV). To measure DRG input resistance and rheobase, 500 ms current steps (−200 pA to 700 pA) were applied the membrane (−400 pA to 700 pA in an early version of the protocol) in the presence and absence of a compound. No holding current was applied to the membrane for cells included in the final datasets. Data were acquired at 10 kHz, with Bessel filter at 2 kHz and series resistance compensation at 100%. Rheobase was defined as the smallest depolarizing current injection required to cause an action potential to fire in the cell. In a subset of cells, the rheobase was ambiguous, since the action potential appeared to be graded in amplitude. In these cases, a […] of the trace clarified the rheobase. Input resistance was measured from the negative current injections, calculated as the difference in membrane potential at steady state divided by the current injection amplitude and then averaged across the four negative current steps for each recording. Resting membrane potential was measured from the first 100 ms of each sweep, averaged for each recording, and corrected for liquid junction potential. One-way ANOVA with multiple comparisons was used to test for significance of difference in rheobase and input resistance between baseline, drug, and wash conditions.

[2] = HEK293 Cell Line, Table 22A, read-out: High-throughput Ephys EC50 (uM) TC-5619
[3] = high throughput electrophysiology, read-out: TC-5619 EC50 (ephys)

Molecule	fold increased potency towards RG-3487 compared to wild type receptor ([1]; ligand RG-3487)	fold reduced potency to acetylcholine compared to wild type receptor ([1]; ligand acetylcholine)	effect on evoked action potentials (rat DRG neurons; Acetylcholine at 3.0 mM, transduced neurons, n=4, FIG. 4B)	current injection evoked action potentials (rat DRG neurons; RG-3487 (SA-2) at 3 μM, transduced rat DRG neurons, FIG. 4A)	increase in the current required to elicit action potentials (rat DRG neurons; RG-3487 (SA-2) at 3 μM, transduced rat DRG neurons, n=7)	Rheobase Shift; Rat DRG Neurons, Baseline (rat DRG neurons)	Rheobase Shift; Rat DRG Neurons, Facinicline/RG-3487 @ EC90 (rat DRG neurons; ligand Facinicline/RG-3487 at EC90)	EC50 [1, 2]	EC50 [1, 3]	Rheobase Shift; Rat DRG Neurons, +TC-5619 @ EC90 (rat DRG neurons)
B1	over 10 fold	over 500 fold	no effect	reversibly inhibits current injection evoked action potentials	~3 x	163 ± 28 pA	625 ± 35 pA			
B2						114 ± 12 pA		0.042 µM	0.0421 µM	632 ± 43 pA
B3						83 ± 7 pA		0.0106 µM	0.0106 µM	562 ± 35 pA
